T1: EsCas13d, nuclease-dead (Eubacterium siraeum, UniProt B0MS50, R295A;H300A;R849A;H854A)
T1 sequence: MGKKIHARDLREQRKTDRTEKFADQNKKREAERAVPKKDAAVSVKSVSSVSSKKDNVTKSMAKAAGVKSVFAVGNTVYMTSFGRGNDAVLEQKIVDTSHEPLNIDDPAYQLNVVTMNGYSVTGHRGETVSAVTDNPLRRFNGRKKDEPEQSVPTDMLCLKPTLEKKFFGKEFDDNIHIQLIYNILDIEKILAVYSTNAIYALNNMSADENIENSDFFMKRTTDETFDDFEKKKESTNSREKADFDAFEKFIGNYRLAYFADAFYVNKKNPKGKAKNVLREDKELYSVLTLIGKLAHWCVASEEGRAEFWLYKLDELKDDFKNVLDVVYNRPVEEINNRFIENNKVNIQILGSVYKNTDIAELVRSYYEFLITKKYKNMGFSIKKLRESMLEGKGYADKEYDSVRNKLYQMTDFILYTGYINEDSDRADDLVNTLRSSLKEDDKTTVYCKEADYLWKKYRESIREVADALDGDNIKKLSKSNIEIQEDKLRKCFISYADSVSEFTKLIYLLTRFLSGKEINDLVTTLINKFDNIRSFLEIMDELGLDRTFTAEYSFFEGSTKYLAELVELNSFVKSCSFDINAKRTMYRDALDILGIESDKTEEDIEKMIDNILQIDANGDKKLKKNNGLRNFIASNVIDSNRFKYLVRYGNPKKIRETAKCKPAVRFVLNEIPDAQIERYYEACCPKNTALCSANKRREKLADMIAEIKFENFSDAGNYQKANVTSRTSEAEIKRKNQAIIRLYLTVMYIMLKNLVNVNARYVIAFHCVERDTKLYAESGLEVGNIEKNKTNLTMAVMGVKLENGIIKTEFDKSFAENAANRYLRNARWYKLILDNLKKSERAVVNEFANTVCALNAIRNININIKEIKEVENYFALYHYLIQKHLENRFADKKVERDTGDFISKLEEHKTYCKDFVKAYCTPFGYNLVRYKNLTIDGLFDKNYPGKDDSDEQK

B1: target 1 insU 3' of 13,insA 3' of 8 (mixed)
RNA 1: CACCCGUGCAAAAAUGCAGGGGUCUAAAACUGAGCGGAUAACCUCUCUAUGG
RNA 2: GGGAAUGGAUCCACAUCUACGAAUUCGUACCAUAGAGAGUGUUAUACCGCUCACCGAGAUCGGAAGAGCACACGU
B2: target 1 insC 3' of 18,insA 3' of 2 (mixed)
RNA 1: CACCCGUGCAAAAAUGCAGGGGUCUAAAACUGAGCGGAUAACCUCUCUAUGG
RNA 2: GGGAAUGGAUCCACAUCUACGAAUUCGUACCAUACGAGAGGUUAUCCGCUCAACCGAGAUCGGAAGAGCACACGU
B3: target 1 insA 3' of 22,insC 3' of 20 (mixed)
RNA 1: CACCCGUGCAAAAAUGCAGGGGUCUAAAACUGAGCGGAUAACCUCUCUAUGG
RNA 2: GGGAAUGGAUCCACAUCUACGAAUUCGUACACACUAGAGAGGUUAUCCGCUCACCGAGAUCGGAAGAGCACACGU
B4: target 1 insG 3' of 21,insA 3' of 10 (mixed)
RNA 1: CACCCGUGCAAAAAUGCAGGGGUCUAAAACUGAGCGGAUAACCUCUCUAUGG
RNA 2: GGGAAUGGAUCCACAUCUACGAAUUCGUACCGAUAGAGAGGUUAAUCCGCUCACCGAGAUCGGAAGAGCACACGU
B5: target 1 insU 3' of 12,insA 3' of 8 (mixed)
RNA 1: CACCCGUGCAAAAAUGCAGGGGUCUAAAACUGAGCGGAUAACCUCUCUAUGG
RNA 2: GGGAAUGGAUCCACAUCUACGAAUUCGUACCAUAGAGAGGUUUAUACCGCUCACCGAGAUCGGAAGAGCACACGU
B6: target 1 insU 3' of 21,insA 3' of 15 (mixed)
RNA 1: CACCCGUGCAAAAAUGCAGGGGUCUAAAACUGAGCGGAUAACCUCUCUAUGG
RNA 2: GGGAAUGGAUCCACAUCUACGAAUUCGUACCUAUAGAGAAGGUUAUCCGCUCACCGAGAUCGGAAGAGCACACGU
B7: target 1 C2U,G17U (mixed)
RNA 1: CACCCGUGCAAAAAUGCAGGGGUCUAAAACUGAGCGGAUAACCUCUCUAUGG
RNA 2: GGGAAUGGAUCCACAUCUACGAAUUCGUACCAUAUAGAGGUUAUCCGCUUACCGAGAUCGGAAGAGCACACGU
B8: target 1 G13A,C21U (mixed)
RNA 1: CACCCGUGCAAAAAUGCAGGGGUCUAAAACUGAGCGGAUAACCUCUCUAUGG
RNA 2: GGGAAUGGAUCCACAUCUACGAAUUCGUACUAUAGAGAAGUUAUCCGCUCACCGAGAUCGGAAGAGCACACGU
B9: target 1 insU 3' of 17,insG 3' of 4 (mixed)
RNA 1: CACCCGUGCAAAAAUGCAGGGGUCUAAAACUGAGCGGAUAACCUCUCUAUGG
RNA 2: GGGAAUGGAUCCACAUCUACGAAUUCGUACCAUAGUAGAGGUUAUCCGCGUCACCGAGAUCGGAAGAGCACACGU
B10: target 1 insG 3' of 16,insC 3' of 12 (mixed)
RNA 1: CACCCGUGCAAAAAUGCAGGGGUCUAAAACUGAGCGGAUAACCUCUCUAUGG
RNA 2: GGGAAUGGAUCCACAUCUACGAAUUCGUACCAUAGAGGAGGCUUAUCCGCUCACCGAGAUCGGAAGAGCACACGU
B11: target 1 G15C,G17A (mixed)
RNA 1: CACCCGUGCAAAAAUGCAGGGGUCUAAAACUGAGCGGAUAACCUCUCUAUGG
RNA 2: GGGAAUGGAUCCACAUCUACGAAUUCGUACCAUAAACAGGUUAUCCGCUCACCGAGAUCGGAAGAGCACACGU
B12: target 1 insC 3' of 17,insU 3' of 6 (mixed)
RNA 1: CACCCGUGCAAAAAUGCAGGGGUCUAAAACUGAGCGGAUAACCUCUCUAUGG
RNA 2: GGGAAUGGAUCCACAUCUACGAAUUCGUACCAUAGCAGAGGUUAUCCUGCUCACCGAGAUCGGAAGAGCACACGU
B13: target 1 C2U,C6A (mixed)
RNA 1: CACCCGUGCAAAAAUGCAGGGGUCUAAAACUGAGCGGAUAACCUCUCUAUGG
RNA 2: GGGAAUGGAUCCACAUCUACGAAUUCGUACCAUAGAGAGGUUAUCAGCUUACCGAGAUCGGAAGAGCACACGU
B14: target 1 insA 3' of 22,insC 3' of 18 (mixed)
RNA 1: CACCCGUGCAAAAAUGCAGGGGUCUAAAACUGAGCGGAUAACCUCUCUAUGG
RNA 2: GGGAAUGGAUCCACAUCUACGAAUUCGUACACAUACGAGAGGUUAUCCGCUCACCGAGAUCGGAAGAGCACACGU
B15: target 1 C7U (mixed)
RNA 1: CACCCGUGCAAAAAUGCAGGGGUCUAAAACUGAGCGGAUAACCUCUCUAUGG
RNA 2: GGGAAUGGAUCCACAUCUACGAAUUCGUACCAUAGAGAGGUUAUUCGCUCACCGAGAUCGGAAGAGCACACGU
B16: target 1 insA 3' of 21,insA 3' of 5 (mixed)
RNA 1: CACCCGUGCAAAAAUGCAGGGGUCUAAAACUGAGCGGAUAACCUCUCUAUGG
RNA 2: GGGAAUGGAUCCACAUCUACGAAUUCGUACCAAUAGAGAGGUUAUCCGACUCACCGAGAUCGGAAGAGCACACGU
B17: target 1 del1,del8 (mixed)
RNA 1: CACCCGUGCAAAAAUGCAGGGGUCUAAAACUGAGCGGAUAACCUCUCUAUGG
RNA 2: GGGAAUGGAUCCACAUCUACGAAUUCGUACCAUAGAGAGGUUACCGCUCCCGAGAUCGGAAGAGCACACGU
B18: target 1 insC 3' of 17,insC 3' of 11 (mixed)
RNA 1: CACCCGUGCAAAAAUGCAGGGGUCUAAAACUGAGCGGAUAACCUCUCUAUGG
RNA 2: GGGAAUGGAUCCACAUCUACGAAUUCGUACCAUAGCAGAGGUCUAUCCGCUCACCGAGAUCGGAAGAGCACACGU
B19: target 1 C7U,C22U (mixed)
RNA 1: CACCCGUGCAAAAAUGCAGGGGUCUAAAACUGAGCGGAUAACCUCUCUAUGG
RNA 2: GGGAAUGGAUCCACAUCUACGAAUUCGUAUCAUAGAGAGGUUAUUCGCUCACCGAGAUCGGAAGAGCACACGU
B20: target 1 insU 3' of 5,insG 3' of 1 (mixed)
RNA 1: CACCCGUGCAAAAAUGCAGGGGUCUAAAACUGAGCGGAUAACCUCUCUAUGG
RNA 2: GGGAAUGGAUCCACAUCUACGAAUUCGUACCAUAGAGAGGUUAUCCGUCUCAGCCGAGAUCGGAAGAGCACACGU
B21: target 1 del2,del8 (mixed)
RNA 1: CACCCGUGCAAAAAUGCAGGGGUCUAAAACUGAGCGGAUAACCUCUCUAUGG
RNA 2: GGGAAUGGAUCCACAUCUACGAAUUCGUACCAUAGAGAGGUUACCGCUACCGAGAUCGGAAGAGCACACGU
B22: target 1 G15U,A18U (mixed)
RNA 1: CACCCGUGCAAAAAUGCAGGGGUCUAAAACUGAGCGGAUAACCUCUCUAUGG
RNA 2: GGGAAUGGAUCCACAUCUACGAAUUCGUACCAUUGAUAGGUUAUCCGCUCACCGAGAUCGGAAGAGCACACGU
B23: target 1 U8A,G15A (mixed)
RNA 1: CACCCGUGCAAAAAUGCAGGGGUCUAAAACUGAGCGGAUAACCUCUCUAUGG
RNA 2: GGGAAUGGAUCCACAUCUACGAAUUCGUACCAUAGAAAGGUUAACCGCUCACCGAGAUCGGAAGAGCACACGU
B24: target 1 C4A,G12U (mixed)
RNA 1: CACCCGUGCAAAAAUGCAGGGGUCUAAAACUGAGCGGAUAACCUCUCUAUGG
RNA 2: GGGAAUGGAUCCACAUCUACGAAUUCGUACCAUAGAGAGUUUAUCCGAUCACCGAGAUCGGAAGAGCACACGU
B25: target 1 C7A,G13U (mixed)
RNA 1: CACCCGUGCAAAAAUGCAGGGGUCUAAAACUGAGCGGAUAACCUCUCUAUGG
RNA 2: GGGAAUGGAUCCACAUCUACGAAUUCGUACCAUAGAGAUGUUAUACGCUCACCGAGAUCGGAAGAGCACACGU
B26: target 1 insG 3' of 8,insA 3' of 6 (mixed)
RNA 1: CACCCGUGCAAAAAUGCAGGGGUCUAAAACUGAGCGGAUAACCUCUCUAUGG
RNA 2: GGGAAUGGAUCCACAUCUACGAAUUCGUACCAUAGAGAGGUUAUGCCAGCUCACCGAGAUCGGAAGAGCACACGU
B27: target 1 insU 3' of 13,insU 3' of 1 (mixed)
RNA 1: CACCCGUGCAAAAAUGCAGGGGUCUAAAACUGAGCGGAUAACCUCUCUAUGG
RNA 2: GGGAAUGGAUCCACAUCUACGAAUUCGUACCAUAGAGAGUGUUAUCCGCUCAUCCGAGAUCGGAAGAGCACACGU

For orientation: Kd means the constant that tells how readily two partners part at equilibrium. A low value points to higher affinity.

In this data set the target is T1, EsCas13d, nuclease-dead. Kind of data set: crRNA (strand 1, pre-loaded); Mg2+; 40 mM Tris-HCl pH 7.5, 150 mM NaCl, 6 mM MgCl2, 1 mM DTT, 0.1% Tween-20, 0.2 mg/ml BSA; 25 C; 10 min per concentration, then washed. The note with it: tags: His6-TwinStrep-SUMO cleaved; N-terminal SNAP kept (SNAP-Surface 488); label: 3' end held by stalled T7 RNA polymerase.
For B1, the Kd stood at 0.0141 ± 0.0007 µM.
Molecule B2 had a dissociation constant (Kd) of 0.0281 ± 0.0026 µM.
On to B3, for which the Kd is 0.0059 ± 0.00023 µM.
As to B4, binding was characterised by a dissociation constant (Kd) of 0.084 ± 0.024 µM.
The figure for B5 is 0.0123 ± 0.0007 µM; for B6 it is 0.0185 ± 0.0017 µM.
The figure for B7 is 0.0205 ± 0.0024 µM; for B8 it is 0.0078 ± 0.0007 µM.
Molecule B9 registered a dissociation constant (Kd) of 0.0145 ± 0.0013 µM.
In turn, B10 showed a dissociation constant Kd of 0.047 ± 0.013 µM.
Molecule B11 registered a Kd of 0.09 ± 0.04 µM.
Next, B12: 0.064 ± 0.008 µM; B13: 0.006 ± 0.0004 µM; B14: 0.047 ± 0.008 µM.
In turn, B15 yielded a Kd of 0.0075 ± 0.0004 µM.
Take B16: binding was put at a Kd of 0.0143 ± 0.0009 µM.
The figure for B17 is 0.0173 ± 0.0017 µM; for B18 it is 0.08 ± 0.026 µM; for B19 it is 0.0142 ± 0.0013 µM.
Regarding B20, binding was put at a Kd of 0.0074 ± 0.0006 µM.
The figure for B21 is 0.01 ± 0.0005 µM; for B22 it is 0.07 ± 0.013 µM; for B23 it is 0.087 ± 0.023 µM.
Next, B24: 0.0085 ± 0.0013 µM; B25: 0.059 ± 0.021 µM; B26: 0.0131 ± 0.0008 µM.
Next, B27: 0.0148 ± 0.0017 µM.
